Source: the supplement of paper PMC10724198
± gives the standard deviation of the averaged measurements.

system: Saccharomyces cerevisiae; test: protein stability index of tFT-peptide fusion (C-terminal peptide) (PSI (0-1 scale)); higher = more stable (slower turnover); details: genetic background: das1 deletion; temperature: 30 C
Experimental: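 MPS profiling in S. cerevisiae of the yeast C-terminome library: the last 12 aa of each annotated ORF are fused to the C-terminus of a sfGFP-mCherry timer, after a GGGS linker. Cells are FACS-sorted into 8 mCherry/sfGFP bins and deep-sequenced. PSI runs from 0 (unstable) to 1 (stable); wild type and das1Δ backgrounds, two technical replicates each.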

Sequence	protein stability index
AAELRDISQCDV [OPI8 C-terminal 12 aa]	0.682 ± 0.024
AANAEILSKINK [POX1 C-terminal 12 aa]	0.713 ± 0.017
ADGNPLQALPQL [TOM40 C-terminal 12 aa]	0.7077 ± 0.0065
AEETAVFTLPNV [GGA2 C-terminal 12 aa]	0.7266 ± 0.0034
AEIIDSLLEQIN [NSI1 C-terminal 12 aa]	0.744 ± 0.019
AERFDNTEVLHL [STE13 C-terminal 12 aa]	0.7011 ± 0.0037
AGADNTARLWTT [ERB1 C-terminal 12 aa]	0.722 ± 0.014
AGTDKSQRCAIM [GIS4 C-terminal 12 aa]	0.758 ± 0.018
AGVNSARGVLRI [SFT2 C-terminal 12 aa]	0.6898 ± 0.0045
AIAPTSLLTPMP [YER087C-A C-terminal 12 aa]	0.6937 ± 0.0021
AIARCALGETLL [CAR1 C-terminal 12 aa]	0.685 ± 0.011
AKAQSQALVTGM [PCL6 C-terminal 12 aa]	0.6806 ± 0.0011
AKKKKKRIRGFG [RRN6 C-terminal 12 aa]	0.686 ± 0.015
ALHSEEASFHSL [AIM21 C-terminal 12 aa]	0.709 ± 0.012
ALKLRALEKLSF [NCS6 C-terminal 12 aa]	0.711 ± 0.014
ALLILVLGWFYR [SCS2 C-terminal 12 aa]	0.405 ± 0.027
ALPNWNTPYLRR [UCC1 C-terminal 12 aa]	0.719 ± 0.015
ANHNNQRAGYFL [SIT4 C-terminal 12 aa]	0.699 ± 0.02
ANKKARHFNNSA [VAM7 C-terminal 12 aa]	0.687 ± 0.017
ANMAAYDKAIHC [LPD1 C-terminal 12 aa]	0.681 ± 0.018

Sequence	protein stability index
ANTHSSLICSKP [YBR209W C-terminal 12 aa]	0.6854 ± 0.0039
APVAAGESESSL [SRO9 C-terminal 12 aa]	0.6991 ± 0.0048
ARNIWRLFLQKI [YLR126C C-terminal 12 aa]	0.705 ± 0.058
ASIGSDIVNNIF [PIN3 C-terminal 12 aa]	0.712 ± 0.032
ASLVFPKEKQNV [APC4 C-terminal 12 aa]	0.718 ± 0.034
ATTSLNNPYGFR [TOS7 C-terminal 12 aa]	0.675 ± 0.0069
AVDYILRLFGFL [COQ2 C-terminal 12 aa]	0.72 ± 0.013
AVGPRQTGEECR [YER088W-B C-terminal 12 aa]	0.695 ± 0.0098
AYFPQKYKHKYI [PRM6 C-terminal 12 aa]	0.689 ± 0.0077
CERCKSELQSVH [SET6 C-terminal 12 aa]	0.686 ± 0.0084
CEVYCSKNSCAS [YBR099C C-terminal 12 aa]	0.6895 ± 0.0012
CFLIGSSDTTSL [OPI6 C-terminal 12 aa]	0.7045 ± 0.0014
CIAKKVKTYWNK [YIL024C C-terminal 12 aa]	0.68219 ± 0.00014
CIGDTDYIERYD [CDA1 C-terminal 12 aa]	0.694 ± 0.015
CIISIVVFPTCI [BIO5 C-terminal 12 aa]	0.286 ± 0.016
CIVNLASDTISL [YOL150C C-terminal 12 aa]	0.709 ± 0.0077
CKATSLLLIPEG [YBL108W C-terminal 12 aa]	0.675 ± 0.018
CLFRYKQLPRRV [MCH2 C-terminal 12 aa]	0.69 ± 0.073
CLQTESETDIET [LIF1 C-terminal 12 aa]	0.661 ± 0.0085
CLRKSPPFVHNT [YMR084W C-terminal 12 aa]	0.6939 ± 0.0044

Sequence	protein stability index
CTIQKMREKANT [YNL028W C-terminal 12 aa]	0.677 ± 0.027
CVDCGTVVNNFR [LAF1 C-terminal 12 aa]	0.723 ± 0.019
CVWESMSNWLQK [YEL034C-A C-terminal 12 aa]	0.7238 ± 0.00042
DAAIVKKYKNKT [NUP57 C-terminal 12 aa]	0.687 ± 0.025
DDDEDGYNPYTL [PAP2 C-terminal 12 aa]	0.7215 ± 0.0049
DDGTKNFIFKNK [ECM23 C-terminal 12 aa]	0.7072 ± 0.0034
DDNDDGDDDDDW [MYO3 C-terminal 12 aa]	0.68701 ± 0.00044
DDNDDSDEREIW [UBR1 C-terminal 12 aa]	0.699 ± 0.031
DDNDTSAYYEDN [GSY1 C-terminal 12 aa]	0.689 ± 0.0083
DEASGTPDEDML [GRR1 C-terminal 12 aa]	0.6796 ± 0.0046
DEERPSKKPKVE [POB3 C-terminal 12 aa]	0.7314 ± 0.0054
DEGVSLVFEVPN [SQT1 C-terminal 12 aa]	0.683 ± 0.02
DENRHSIRIPFN [USB1 C-terminal 12 aa]	0.704 ± 0.015
DFPHEAVVREML [TVP18 C-terminal 12 aa]	0.7167 ± 0.0023
DFQNCFPRQRIL [DFP2 C-terminal 12 aa]	0.7035 ± 0.0037
DFVDMYQTEHSG [MTF1 C-terminal 12 aa]	0.712 ± 0.0088
DFVYNEEDFEKL [NOT5 C-terminal 12 aa]	0.718 ± 0.015
DGKSVNKYGAKK [GUS1 C-terminal 12 aa]	0.6798 ± 0.0063
DGKVIYELEDKE [GET3 C-terminal 12 aa]	0.727 ± 0.021

same assay, conditions: genetic background: wild type; temperature: 30 C

Sequence	protein stability index
AAELRDISQCDV [OPI8 C-terminal 12 aa]	0.69 ± 0.088
AANAEILSKINK [POX1 C-terminal 12 aa]	0.683 ± 0.0089
ADGNPLQALPQL [TOM40 C-terminal 12 aa]	0.666 ± 0.024
AEETAVFTLPNV [GGA2 C-terminal 12 aa]	0.694 ± 0.0082
AEIIDSLLEQIN [NSI1 C-terminal 12 aa]	0.6797 ± 0.0017
AERFDNTEVLHL [STE13 C-terminal 12 aa]	0.689 ± 0.035
AGADNTARLWTT [ERB1 C-terminal 12 aa]	0.736 ± 0.056
AGTDKSQRCAIM [GIS4 C-terminal 12 aa]	0.695 ± 0.056
AGVNSARGVLRI [SFT2 C-terminal 12 aa]	0.71 ± 0.023
AIAPTSLLTPMP [YER087C-A C-terminal 12 aa]	0.733 ± 0.013
AIARCALGETLL [CAR1 C-terminal 12 aa]	0.641 ± 0.011
AKAQSQALVTGM [PCL6 C-terminal 12 aa]	0.685 ± 0.035
AKKKKKRIRGFG [RRN6 C-terminal 12 aa]	0.671 ± 0.034
ALHSEEASFHSL [AIM21 C-terminal 12 aa]	0.7 ± 0.021
ALKLRALEKLSF [NCS6 C-terminal 12 aa]	0.697 ± 0.037
ALLILVLGWFYR [SCS2 C-terminal 12 aa]	0.4 ± 0.0047
ALPNWNTPYLRR [UCC1 C-terminal 12 aa]	0.746 ± 0.023
ANHNNQRAGYFL [SIT4 C-terminal 12 aa]	0.652 ± 0.015
ANKKARHFNNSA [VAM7 C-terminal 12 aa]	0.698 ± 0.019
ANMAAYDKAIHC [LPD1 C-terminal 12 aa]	0.708 ± 0.033

Sequence	protein stability index
ANTHSSLICSKP [YBR209W C-terminal 12 aa]	0.701 ± 0.044
APVAAGESESSL [SRO9 C-terminal 12 aa]	0.687 ± 0.007
ARNIWRLFLQKI [YLR126C C-terminal 12 aa]	0.168 ± 0.0098
ASIGSDIVNNIF [PIN3 C-terminal 12 aa]	0.711 ± 0.04
ASLVFPKEKQNV [APC4 C-terminal 12 aa]	0.6902 ± 0.00072
ATTSLNNPYGFR [TOS7 C-terminal 12 aa]	0.663 ± 0.03
AVDYILRLFGFL [COQ2 C-terminal 12 aa]	0.537 ± 0.019
AVGPRQTGEECR [YER088W-B C-terminal 12 aa]	0.66899 ± 0.00042
AYFPQKYKHKYI [PRM6 C-terminal 12 aa]	0.5656 ± 0.004
CERCKSELQSVH [SET6 C-terminal 12 aa]	0.663 ± 0.03
CEVYCSKNSCAS [YBR099C C-terminal 12 aa]	0.661 ± 0.031
CFLIGSSDTTSL [OPI6 C-terminal 12 aa]	0.691 ± 0.028
CIAKKVKTYWNK [YIL024C C-terminal 12 aa]	0.676 ± 0.023
CIGDTDYIERYD [CDA1 C-terminal 12 aa]	0.685 ± 0.031
CIISIVVFPTCI [BIO5 C-terminal 12 aa]	0.285 ± 0.0088
CIVNLASDTISL [YOL150C C-terminal 12 aa]	0.667 ± 0.01
CKATSLLLIPEG [YBL108W C-terminal 12 aa]	0.659 ± 0.021
CLFRYKQLPRRV [MCH2 C-terminal 12 aa]	0.687 ± 0.029
CLQTESETDIET [LIF1 C-terminal 12 aa]	0.674 ± 0.013
CLRKSPPFVHNT [YMR084W C-terminal 12 aa]	0.703 ± 0.022

Sequence	protein stability index
CTIQKMREKANT [YNL028W C-terminal 12 aa]	0.723 ± 0.062
CVDCGTVVNNFR [LAF1 C-terminal 12 aa]	0.688 ± 0.025
CVWESMSNWLQK [YEL034C-A C-terminal 12 aa]	0.724 ± 0.015
DAAIVKKYKNKT [NUP57 C-terminal 12 aa]	0.692 ± 0.033
DDDEDGYNPYTL [PAP2 C-terminal 12 aa]	0.697 ± 0.0073
DDGTKNFIFKNK [ECM23 C-terminal 12 aa]	0.706 ± 0.031
DDNDDGDDDDDW [MYO3 C-terminal 12 aa]	0.7087 ± 0.0034
DDNDDSDEREIW [UBR1 C-terminal 12 aa]	0.71 ± 0.029
DDNDTSAYYEDN [GSY1 C-terminal 12 aa]	0.803 ± 0.073
DEASGTPDEDML [GRR1 C-terminal 12 aa]	0.693 ± 0.034
DEERPSKKPKVE [POB3 C-terminal 12 aa]	0.745 ± 0.02
DEGVSLVFEVPN [SQT1 C-terminal 12 aa]	0.677 ± 0.012
DENRHSIRIPFN [USB1 C-terminal 12 aa]	0.688 ± 0.013
DFPHEAVVREML [TVP18 C-terminal 12 aa]	0.6914 ± 0.0026
DFQNCFPRQRIL [DFP2 C-terminal 12 aa]	0.2848 ± 0.0028
DFVDMYQTEHSG [MTF1 C-terminal 12 aa]	0.7301 ± 0.0034
DFVYNEEDFEKL [NOT5 C-terminal 12 aa]	0.681 ± 0.014
DGKSVNKYGAKK [GUS1 C-terminal 12 aa]	0.699 ± 0.029
DGKVIYELEDKE [GET3 C-terminal 12 aa]	0.6753 ± 0.0058

system: Saccharomyces cerevisiae; test: as above; details: genetic background: cdc34-1; temperature: 37 C
Experimental: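 MPS profiling in S. cerevisiae of the tFT-X12 degron library: putative degron peptides plus stable controls, 12 aa, fused to the C-terminus of a sfGFP-mCherry timer. Cells are FACS-sorted into 8 mCherry/sfGFP bins and deep-sequenced. PSI runs from 0 (unstable) to 1 (stable). Backgrounds are wild type, das1Δ and doa10Δ at 30 °C, and wild type, das1Δ, cdc34-1 and cdc53-1 at 37 °C; 2-3 technical replicates each.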

Sequence	protein stability index
WVFVETVFLVCG	0.147 ± 0.046
WVGVVLLSVVGG	0.161 ± 0.016
WVWCVCVVVWCG	0.111 ± 0.0046
WVWFGCVLGYRV	0.571 ± 0.022
WWVAGLGSSGGG	0.738 ± 0.016
WWVVVRGGWCLC	0.336 ± 0.043
YFVLVRLICFLL	0.347 ± 0.0092
YNTVALRITLIT	0.444 ± 0.017
YPLISVSLPCPS	0.533 ± 0.018
